Assay results: patent US20210395392A1 (Bristol-Myers Squibb, published 2021)
Each block holds one binder with its values, some of them ahead of it.

Experiments:
[1] = biological target: T1, Recombinant soluble extracellular domain of human MerTK (human, UniProt Q12866 21-505); assay: SPR, mAb captured, soluble MerTK ECD as analyte, 37 C
T1 construct: SPR analyte; also called hMerTK
T1 sequence: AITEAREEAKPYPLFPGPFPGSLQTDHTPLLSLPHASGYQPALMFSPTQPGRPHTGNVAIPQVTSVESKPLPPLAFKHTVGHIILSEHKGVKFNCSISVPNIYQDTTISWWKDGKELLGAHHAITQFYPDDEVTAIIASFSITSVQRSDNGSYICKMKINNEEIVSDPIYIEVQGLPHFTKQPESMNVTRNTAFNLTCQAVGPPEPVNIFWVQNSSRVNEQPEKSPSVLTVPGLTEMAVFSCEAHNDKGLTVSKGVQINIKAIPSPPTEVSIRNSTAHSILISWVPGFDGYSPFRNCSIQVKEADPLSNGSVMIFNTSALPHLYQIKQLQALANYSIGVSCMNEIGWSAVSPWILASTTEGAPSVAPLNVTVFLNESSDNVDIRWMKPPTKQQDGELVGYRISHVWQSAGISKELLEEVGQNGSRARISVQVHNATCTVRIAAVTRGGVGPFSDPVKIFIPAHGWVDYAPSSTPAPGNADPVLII
Protocol: (§1) MerTK Abs were captured on the chip. Recombinant soluble forms of the extracellular domains of human, cynomolgus monkey, and mouse MerTK polypeptide were injected as analytes at multiple concentrations each. The resulting sensorgrams were double-referenced and fitted to a 1:1 Langmuir binding model with mass transport.

[2] = biological target: T2, Recombinant soluble extracellular domain of cynomolgus monkey MerTK (cynomolgus monkey, UniProt Q12866 21-505 (human entry)); assay: as above
T2 construct: SPR analyte; also called cMerTK; Cynomolgus MerTK
T2 chain: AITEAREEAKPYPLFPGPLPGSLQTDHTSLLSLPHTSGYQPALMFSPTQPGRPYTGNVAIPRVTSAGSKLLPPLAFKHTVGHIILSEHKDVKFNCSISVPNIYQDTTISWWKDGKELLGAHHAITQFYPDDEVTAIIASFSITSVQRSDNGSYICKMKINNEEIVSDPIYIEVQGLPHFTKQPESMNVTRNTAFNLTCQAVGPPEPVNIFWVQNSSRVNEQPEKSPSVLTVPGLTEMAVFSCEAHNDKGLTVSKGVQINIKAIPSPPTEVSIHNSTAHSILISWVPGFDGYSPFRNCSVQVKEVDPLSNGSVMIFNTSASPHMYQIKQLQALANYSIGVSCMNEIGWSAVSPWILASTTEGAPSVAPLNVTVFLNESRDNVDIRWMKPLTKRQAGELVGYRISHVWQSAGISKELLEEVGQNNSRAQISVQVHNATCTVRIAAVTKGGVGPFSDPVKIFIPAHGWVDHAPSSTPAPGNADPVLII
Protocol: as §1

[3] = biological target: T3, Human MerTK on hMerTK-expressing cells (human, UniProt Q12866 21-999); assay: cell-based or functional assay
T3 sequence: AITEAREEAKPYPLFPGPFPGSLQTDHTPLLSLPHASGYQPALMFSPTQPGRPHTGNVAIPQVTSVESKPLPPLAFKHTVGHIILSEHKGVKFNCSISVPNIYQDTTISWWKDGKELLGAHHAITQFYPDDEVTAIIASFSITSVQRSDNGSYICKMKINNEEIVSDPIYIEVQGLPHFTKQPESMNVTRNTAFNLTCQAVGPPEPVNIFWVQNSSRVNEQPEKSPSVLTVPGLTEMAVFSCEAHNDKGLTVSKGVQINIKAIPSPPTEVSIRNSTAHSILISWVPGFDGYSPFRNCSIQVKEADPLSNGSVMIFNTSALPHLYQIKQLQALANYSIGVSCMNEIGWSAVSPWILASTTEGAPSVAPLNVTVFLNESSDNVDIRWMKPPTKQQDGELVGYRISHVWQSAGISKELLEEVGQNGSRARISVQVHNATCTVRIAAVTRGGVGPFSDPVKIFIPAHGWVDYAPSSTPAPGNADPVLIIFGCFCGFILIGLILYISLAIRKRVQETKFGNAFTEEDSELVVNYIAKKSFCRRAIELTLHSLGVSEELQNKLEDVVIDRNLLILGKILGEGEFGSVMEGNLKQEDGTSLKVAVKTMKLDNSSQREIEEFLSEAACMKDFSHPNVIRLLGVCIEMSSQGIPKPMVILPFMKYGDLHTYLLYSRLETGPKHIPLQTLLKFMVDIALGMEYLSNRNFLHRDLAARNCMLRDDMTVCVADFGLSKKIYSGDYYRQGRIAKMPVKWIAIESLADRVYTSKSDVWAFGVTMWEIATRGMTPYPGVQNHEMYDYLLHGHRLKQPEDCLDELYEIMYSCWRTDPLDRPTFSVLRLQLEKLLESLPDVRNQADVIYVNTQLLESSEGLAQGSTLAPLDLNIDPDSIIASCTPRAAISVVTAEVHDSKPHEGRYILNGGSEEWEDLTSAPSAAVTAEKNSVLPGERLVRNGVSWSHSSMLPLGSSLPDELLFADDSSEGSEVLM

[4] = biological target: T4, Mouse MerTK on mMerTK-expressing cells (mouse, UniProt Q60805 19-994); assay: cell-based or functional assay
T4 sequence: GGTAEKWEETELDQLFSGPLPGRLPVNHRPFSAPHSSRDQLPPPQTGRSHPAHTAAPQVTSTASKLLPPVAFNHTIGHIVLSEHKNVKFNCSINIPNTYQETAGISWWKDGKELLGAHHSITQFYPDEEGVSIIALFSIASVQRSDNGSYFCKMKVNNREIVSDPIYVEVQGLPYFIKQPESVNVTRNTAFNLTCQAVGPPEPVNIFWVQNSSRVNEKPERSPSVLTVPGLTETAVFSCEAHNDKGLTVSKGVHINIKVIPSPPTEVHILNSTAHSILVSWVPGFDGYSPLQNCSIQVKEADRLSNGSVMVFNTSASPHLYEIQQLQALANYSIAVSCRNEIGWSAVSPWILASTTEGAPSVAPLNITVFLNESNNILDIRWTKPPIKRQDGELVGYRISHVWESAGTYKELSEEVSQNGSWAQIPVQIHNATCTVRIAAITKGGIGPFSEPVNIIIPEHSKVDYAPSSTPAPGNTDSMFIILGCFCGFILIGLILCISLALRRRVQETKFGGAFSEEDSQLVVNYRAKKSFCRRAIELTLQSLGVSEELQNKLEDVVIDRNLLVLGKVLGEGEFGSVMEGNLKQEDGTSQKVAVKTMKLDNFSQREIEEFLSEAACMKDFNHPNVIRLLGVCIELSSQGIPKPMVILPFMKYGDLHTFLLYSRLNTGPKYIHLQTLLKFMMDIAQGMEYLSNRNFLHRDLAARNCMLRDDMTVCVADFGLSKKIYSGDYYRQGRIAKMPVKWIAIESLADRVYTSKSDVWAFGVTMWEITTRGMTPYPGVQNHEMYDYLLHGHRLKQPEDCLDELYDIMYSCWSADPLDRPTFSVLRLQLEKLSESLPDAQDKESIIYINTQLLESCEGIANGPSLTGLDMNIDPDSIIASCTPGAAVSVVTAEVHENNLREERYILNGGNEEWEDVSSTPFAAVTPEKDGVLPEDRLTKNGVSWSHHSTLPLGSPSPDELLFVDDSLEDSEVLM

[5] = biological target: T5, Recombinant soluble extracellular domain of mouse MerTK (mouse, UniProt Q60805 19-497); assay: SPR, soluble MerTK ECD; format for mouse mAbs not detailed
T5 construct: SPR analyte; also called mMerTK
T5 sequence: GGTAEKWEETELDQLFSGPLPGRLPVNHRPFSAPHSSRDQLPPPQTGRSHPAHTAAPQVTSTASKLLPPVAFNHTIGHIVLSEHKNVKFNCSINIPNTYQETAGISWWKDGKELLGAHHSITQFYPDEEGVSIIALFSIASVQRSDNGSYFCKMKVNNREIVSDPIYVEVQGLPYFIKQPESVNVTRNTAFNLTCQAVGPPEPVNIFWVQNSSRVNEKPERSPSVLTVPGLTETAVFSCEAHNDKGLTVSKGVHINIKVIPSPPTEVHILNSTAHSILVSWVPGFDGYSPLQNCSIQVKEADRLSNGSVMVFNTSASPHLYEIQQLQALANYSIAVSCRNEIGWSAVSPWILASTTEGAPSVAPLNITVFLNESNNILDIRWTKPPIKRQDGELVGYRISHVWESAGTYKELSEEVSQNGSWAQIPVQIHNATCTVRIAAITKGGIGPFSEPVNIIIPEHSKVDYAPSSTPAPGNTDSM

[6] = biological target: T1, Recombinant soluble extracellular …; assay: as above
[7] = biological target: T2, Recombinant soluble extracellular …; assay: as above
[8] = biological target: T5, Recombinant soluble extracellular …; assay: SPR, mAb captured, soluble MerTK ECD as analyte, 37 C
Protocol: as §1

B3: Humanized MAb 2L105 (antibody, human IgG1, lambda, V domains shown)
VH: QVTLKESGPVLVKPTETLTLTCTVSGISLSSFAISWIRQPPGKALEWLAVIWTGGGTDYNSALKSRLTISKDTSKSQVVLTMTNMDPVDTATYYCASHWYLDVWGQGTTVTVSS
VL: QTVVTQEPSFSVSPGGTVTLTCRSSTGAVSTSNYANWVQQTPGQAPRGLIGGANSRAPGIPDRFSGSILGNKAALTITGAQADDESDYYCALWFSNHWVFGGGTKLTVLG
notes: Humanized variant of moMAb 2D9, Bin 2
Kd [8]: 13.7 nM
koff [8]: 0.00123 s⁻¹
kon [8]: 89500 M⁻¹ s⁻¹
t1/2 [8]: 9.4 min
Kd [1]: 24.8 nM
koff [1]: 0.00146 s⁻¹
kon [1]: 58900 M⁻¹ s⁻¹
t1/2 [1]: 7.9 min
Kd [2]: 27 nM
koff [2]: 0.00151 s⁻¹
kon [2]: 55900 M⁻¹ s⁻¹
t1/2 [2]: 7.7 min
Signaling Assay, hMerTK with Gas6, pSTAT1 IC50 (nM) [3]: 1.37 nM

B5: Humanized mAb 4M60 (antibody, human IgG1, kappa, V domains shown)
VH: QVQLVQSGSELKKPGASVKVSCKASGNTFTTYGMSWVRQAPGQGLEWMGWINNYSGVSTYADDFKGRFVFSLDTSVSTAYLQISSLKAEDTAVYYCARDYYGSGGWVFDYWGQGTTVTVSS
VL: DVVMTQSPLSLPVTLGQPASISCKSSQSLLDSEGKTYLNWLQQRPGQSPRRLMYLVSKLDSGVPDRFSGSGSGTDFTLKISRVEAEDVGVYYCWQGTHFPRTFGGGTKVEIKR
notes: Humanized variant of moMAb 4E9, Bin 2
Kd [8]: 47.1 nM
koff [8]: 0.00249 s⁻¹
kon [8]: 52900 M⁻¹ s⁻¹
t1/2 [8]: 4.6 min
Kd [1]: 50.8 nM
koff [1]: 0.00134 s⁻¹
kon [1]: 26400 M⁻¹ s⁻¹
t1/2 [1]: 8.6 min
Kd [2]: 42.5 nM
koff [2]: 0.00137 s⁻¹
kon [2]: 32200 M⁻¹ s⁻¹
t1/2 [2]: 8.4 min
Signaling Assay, hMerTK with Gas6, pSTAT1 IC50 (nM) [3]: 8.88 nM

Next, values leading:

Kd [1]: 9 nM
koff [1]: 0.00117 s⁻¹
kon [1]: 132000 M⁻¹ s⁻¹
t1/2 [1]: 9.9 min
Kd [2]: 22.5 nM
koff [2]: 0.00235 s⁻¹
kon [2]: 108000 M⁻¹ s⁻¹
t1/2 [2]: 4.9 min
Inhibition of Efferocytosis IC50 [3]: 0.169 nM
Signaling Assay, hMerTK with Gas6, pSTAT1 IC50 (nM) [3]: 1.13 nM
Signaling Assay, hMerTK without Gas6, pSTAT1 IC50 (nM) [3]: > 100 nM
B1: HuMAb 10K11 (antibody, human IgG1, kappa, V domains shown)
VH: QLQLQESGPGLVKPSETLSLTCAVSGYSISSDYSWGWIRQPPGKGLEWIGSIYHSGNTYFNPSLKSRVTISVDTSKNQFSLKLSSVTAADTAVYYCARDKSYYFGPGSMDVWGQGTTVTVSS
VL: AIQLTQSPSSLSASVGDRVTITCRASQGISSALAWYQQKPGKAPKLLIYDASSLESGVPSRFSGSGSGTDFTLTISSLQPEDFATYYCQQFKSYLTFGQGTRLEIKR
notes: Human anti-hMerTK mAb, Bin 1

Signaling Assay, mMerTK with Gas6, pSTAT1 IC50 (nM) [4]: 1.86 nM
Inhibition of Efferocytosis IC50 [3]: 0.632 nM
Signaling Assay, hMerTK with Gas6, pSTAT1 IC50 (nM) [3]: 1.52 nM
Signaling Assay, hMerTK without Gas6, pSTAT1 IC50 (nM) [3]: > 100 nM
Kd [5]: 9.7 nM
koff [5]: 0.00133 s⁻¹
kon [5]: 137000 M⁻¹ s⁻¹
t1/2 [5]: 8.7 min
koff [6]: 0.00114 s⁻¹
t1/2 [6]: 10.1 min
Kd [7]: 40 nM
koff [7]: 0.00112 s⁻¹
kon [7]: 28400 M⁻¹ s⁻¹
t1/2 [7]: 10.3 min
B2: MoMAb 4E9 (antibody, V domains shown)
VH: QIQLVQSGPELKKPGETVKISCKASGNTFTTYGMSWVKQAPGKNLKWMGWINNYSGVSTYADDFKGRFAFSLETSATTAYLQINNLTNEDSATYFCARDYYGSGGWVFDYWGQGTTLTVSS
VL: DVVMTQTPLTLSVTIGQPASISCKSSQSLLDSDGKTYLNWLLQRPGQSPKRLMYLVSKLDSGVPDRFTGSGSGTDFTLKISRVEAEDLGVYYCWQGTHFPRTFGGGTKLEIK
notes: Mouse mAb; Bin 2

Signaling Assay, mMerTK with Gas6, pSTAT1 IC50 (nM) [4]: 2.07 nM
Inhibition of Efferocytosis IC50 [3]: 0.528 nM
Signaling Assay, hMerTK with Gas6, pSTAT1 IC50 (nM) [3]: 1.44 nM
Signaling Assay, hMerTK without Gas6, pSTAT1 IC50 (nM) [3]: > 100 nM
Kd [5]: 3.2 nM
koff [5]: 0.000403 s⁻¹
kon [5]: 126000 M⁻¹ s⁻¹
t1/2 [5]: 28.7 min
koff [6]: 0.00064 s⁻¹
t1/2 [6]: 18.2 min
Kd [7]: 12 nM
koff [7]: 0.00064 s⁻¹
kon [7]: 53300 M⁻¹ s⁻¹
t1/2 [7]: 18 min
B4: MoMAb 2D9 (antibody, V domains shown)
VH: QVQLKESGPGLVAPSQSLSITCTVSGISLSSFAISWVRQPPGKGLEWLGVIWTGGGTDYNSALKSRLTISKDTSKNQVFLKMNSLQTDDTARYYCASHWYLDVWGTGTTVTVSS
VL: QAVVTQESALTTSPGETVTLTCRSSTGAVSTSNYANWVQEKPDHLFTGLIGGANSRAPGIPARFSGSLIGDKAALTITGAQTEDEAIYFCALWFSNHWVFGGGTKLTVL
notes: Mouse mAb; Bin 2
